Experiments:
[1] = target: membrane-bound TNFalpha on stably transfected CHO cells (B-220 cells); experiment: FACS, beads with CHO-TNFα (B220) cells, Sample 2
[2] = target: membrane-bound TNFalpha on stably transfected CHO cells (B-220 cells); experiment: FACS, anti-CD19 beads with TNFalpha-transfected CHO cells (FIG. 4, middle panel)
[3] = target: membrane-bound TNFalpha on stably transfected CHO cells (B-220 cells); experiment: FACS, mixed beads with CHO-TNFα (B220) cells, Sample 4

For “APC labeled unrelated antibody (anti-CD19), coated on beads”, the % bound beads [1] was 0.9%, the # Events (cells bound to anti-CD19-APC beads) [2] was 6 events and the % Parent [2] was 0.1%. It also gave a % Total [2] of 0.1% and a % bound beads [3] of 0.4%.

From patent US20180127493A1
